US20200262877A1, “ION CHANNEL-BINDING PEPTIDES AND METHODS OF USE THEREOF” (priority 2017, published 2020)

Columns and labels:
NR2A = target: T1, NR2A (Homo sapiens, UniProt Q12879); test: Ion channel panel (IonWorks Barracuda): NR2A; format: cell-based; details: 100% = no change, <100% = inhibition
T1 construct: host or cells: HEK293 or CHO
Description: (§1) This example describes a method for assaying ion channel activity in cells.
(§2) Peptides were screened in duplicate at final concentrations of 20 μM and 200 nM, as determined by amino acid analysis, and diluted into HEPES buffered physiological saline (HBPS). HEK293 or CHO cells from the American Type Culture Collection (ATCC) were transfected with the appropriate ion channel before use. HEK293 cells were grown in Dulbecco's Modified Eagle Medium/Nutrient Mixture F-12, and CHO cells were cultured in Ham's F-12 media. All cultures were supplemented with 10% fetal bovine serum, 100 U/ml penicillin G, 100 μg/ml streptomycin sulfate, and the appropriate selection antibiotics. Prior to use, cells were washed twice with Hank's Balanced Salt Solution, and treated with Accutase cell detachment solution (Sigma-Aldrich). Cells were then washed. Peptides and controls were incubated with cells for at least five minutes.
(§3) Percent inhibition was defined as: (1-(Ipeptide/Icontrol))×100%).
(§4) Percent values were calculated using the following formula: % activation=(IPeptide/Icontrol)×100%, where IPeptide is the current produced by co-application a peptide with agonist, and Icontrol refers to the current produced by stimulation in control. Control used for each ion channel is the reference compound matched to a particular channel, as illustrated in TABLE 10 below.

α3β4 = target: T2, α3β4 (Homo sapiens, UniProt P30926+P32297); test: Ion channel panel (IonWorks Barracuda): α3β4; format: cell-based; details: 100% = no change, <100% = inhibition
T2 construct: host or cells: HEK293 or CHO
Description: as §1, §2, §3, §4

Kv2.1 = target: T3, Kv2.1 (Homo sapiens, UniProt Q14721); test: cell-based; details: 100% = no change, <100% = inhibition
T3 construct: host or cells: HEK293 or CHO
Description: as §1, §2, §3, §4

Cav2.2 = target: T4, Cav2.2 (Homo sapiens, UniProt Q00975); test: cell-based; details: 100% = no change, <100% = inhibition
T4 construct: host or cells: HEK293 or CHO
Description: as §1, §2, §3, §4

Cav2.1 = target: T5, Cav2.1 (Homo sapiens, UniProt O00555); test: cell-based; details: 100% = no change, <100% = inhibition
T5 construct: host or cells: HEK293 or CHO
Description: as §1, §2, §3, §4

Kir2.1 = target: T6, Kir2.1 (Homo sapiens, UniProt P63252); test: Ion channel panel (IonWorks Barracuda): Kir2.1; format: cell-based; details: 100% = no change, <100% = inhibition
T6 construct: host or cells: HEK293 or CHO
Description: as §1, §2, §3, §4

hERG = hERG (Homo sapiens, UniProt Q12809); test: in vitro; details: 100% = no change, <100% = inhibition
Description: as §1, §2, §3, §4

Nav1.5 = Nav1.5 (Homo sapiens, UniProt Q14524); test: in vitro; details: 100% = no change; for Activity of Nav1.5 with peptide, expressed as a percentage of the reference compound: peptide at 0.2 μM; for Activity of Nav1.5 with peptide (percentage of the reference compound): peptide at 20 μM
Description: as §1, §2, §3, §4

5HT3a = target: T7, 5HT3a (Homo sapiens, UniProt P46098); test: Ion channel panel (IonWorks Barracuda): 5HT3a; format: cell-based
T7 construct: host or cells: HEK293 or CHO
T7 sequence (P46098 whole entry, looked up): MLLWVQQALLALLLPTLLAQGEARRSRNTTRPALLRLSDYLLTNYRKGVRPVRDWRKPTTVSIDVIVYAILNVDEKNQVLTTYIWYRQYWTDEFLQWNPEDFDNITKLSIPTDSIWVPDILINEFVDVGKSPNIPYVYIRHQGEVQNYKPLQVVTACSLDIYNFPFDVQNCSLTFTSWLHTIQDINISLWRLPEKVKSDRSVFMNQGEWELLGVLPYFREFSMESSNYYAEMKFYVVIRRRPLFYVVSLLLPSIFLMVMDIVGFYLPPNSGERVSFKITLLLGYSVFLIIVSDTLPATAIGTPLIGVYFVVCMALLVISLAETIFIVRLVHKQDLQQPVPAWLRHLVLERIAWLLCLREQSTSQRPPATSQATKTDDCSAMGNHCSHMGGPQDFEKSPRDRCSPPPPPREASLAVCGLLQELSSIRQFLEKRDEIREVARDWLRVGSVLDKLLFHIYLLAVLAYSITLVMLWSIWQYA
Description: as §1, §2, §3, §4

GABA = test: Ion channel panel (IonWorks Barracuda): GABA; format: cell-based; details: 100% = no change, <100% = inhibition
Description: as §1, §2, §3, §4

Kv1.1 = target: T8, Kv1.1 (Homo sapiens, UniProt Q09470); test: cell-based; format: cell-based; details: 100% = no change, <100% = inhibition
T8 construct: host or cells: HEK293 or CHO
Description: as §1, §2, §3, §4

Kv1.2 = target: T9, Kv1.2 (Homo sapiens, UniProt P16389); test: cell-based; format: cell-based; details: 100% = no change, <100% = inhibition
T9 construct: host or cells: HEK293 or CHO
Description: as §1, §2, §3, §4

Kv1.3 = target: T10, Kv1.3 (Homo sapiens, UniProt P22001); test: cell-based; format: cell-based; details: 100% = no change, <100% = inhibition
T10 construct: host or cells: HEK293 or CHO
Description: as §1, §2, §3, §4

Nav1.7 = target: T11, Nav1.7 (Homo sapiens, UniProt Q15858); test: cell-based; format: cell-based; details: 100% = no change; for Activity of Nav1.7 with peptide, expressed as a percentage of the reference compound: peptide at 0.2 μM; for Activity of Nav1.7 with peptide (percentage of the reference compound): peptide at 20 μM
T11 construct: host or cells: HEK293 or CHO
Description: as §1
as §2, with “Peptides were screened in duplicate at final concentrations of 20 μM and 200 nM, as determined by amino acid analysis, and diluted into HEPES buffered physiological saline (HBPS).” left out
as §3, §4

α4β2 = target: T12, α4β2 (Homo sapiens, UniProt P17787+P43681); test: Ion channel panel (IonWorks Barracuda): α4β2; format: cell-based; details: 100% = no change, <100% = inhibition
T12 construct: host or cells: HEK293 or CHO
Description: as §1, §2, §3, §4

TRPV1 = target: T13, TRPV1 (Homo sapiens, UniProt Q8NER1); test: Ion channel panel (IonWorks Barracuda): TRPV1; format: cell-based; details: 100% = no change, <100% = inhibition
T13 construct: host or cells: HEK293 or CHO
Description: as §1, §2, §3, §4

NR2B = target: T14, NR2B (Homo sapiens, UniProt Q13224); test: Ion channel panel (IonWorks Barracuda): NR2B; format: cell-based; details: 100% = no change, <100% = inhibition
T14 construct: host or cells: HEK293 or CHO
Description: as §1, §2, §3, §4

TRPA1 = target: T15, TRPA1 (Homo sapiens, UniProt O75762); test: Ion channel panel (IonWorks Barracuda): TRPA1; format: cell-based; details: 100% = no change, <100% = inhibition
T15 construct: host or cells: HEK293 or CHO
Description: as §1, §2, §3, §4

[1] = first of two Nav1.5 columns (probably TP1)
[2] = second of two Nav1.5 columns (probably TP2)
[3] = first of two Nav1.7 columns (probably TP1)
[4] = second of two Nav1.7 columns (probably TP2)

Sequence of Nav1.5 (Q14524 whole entry): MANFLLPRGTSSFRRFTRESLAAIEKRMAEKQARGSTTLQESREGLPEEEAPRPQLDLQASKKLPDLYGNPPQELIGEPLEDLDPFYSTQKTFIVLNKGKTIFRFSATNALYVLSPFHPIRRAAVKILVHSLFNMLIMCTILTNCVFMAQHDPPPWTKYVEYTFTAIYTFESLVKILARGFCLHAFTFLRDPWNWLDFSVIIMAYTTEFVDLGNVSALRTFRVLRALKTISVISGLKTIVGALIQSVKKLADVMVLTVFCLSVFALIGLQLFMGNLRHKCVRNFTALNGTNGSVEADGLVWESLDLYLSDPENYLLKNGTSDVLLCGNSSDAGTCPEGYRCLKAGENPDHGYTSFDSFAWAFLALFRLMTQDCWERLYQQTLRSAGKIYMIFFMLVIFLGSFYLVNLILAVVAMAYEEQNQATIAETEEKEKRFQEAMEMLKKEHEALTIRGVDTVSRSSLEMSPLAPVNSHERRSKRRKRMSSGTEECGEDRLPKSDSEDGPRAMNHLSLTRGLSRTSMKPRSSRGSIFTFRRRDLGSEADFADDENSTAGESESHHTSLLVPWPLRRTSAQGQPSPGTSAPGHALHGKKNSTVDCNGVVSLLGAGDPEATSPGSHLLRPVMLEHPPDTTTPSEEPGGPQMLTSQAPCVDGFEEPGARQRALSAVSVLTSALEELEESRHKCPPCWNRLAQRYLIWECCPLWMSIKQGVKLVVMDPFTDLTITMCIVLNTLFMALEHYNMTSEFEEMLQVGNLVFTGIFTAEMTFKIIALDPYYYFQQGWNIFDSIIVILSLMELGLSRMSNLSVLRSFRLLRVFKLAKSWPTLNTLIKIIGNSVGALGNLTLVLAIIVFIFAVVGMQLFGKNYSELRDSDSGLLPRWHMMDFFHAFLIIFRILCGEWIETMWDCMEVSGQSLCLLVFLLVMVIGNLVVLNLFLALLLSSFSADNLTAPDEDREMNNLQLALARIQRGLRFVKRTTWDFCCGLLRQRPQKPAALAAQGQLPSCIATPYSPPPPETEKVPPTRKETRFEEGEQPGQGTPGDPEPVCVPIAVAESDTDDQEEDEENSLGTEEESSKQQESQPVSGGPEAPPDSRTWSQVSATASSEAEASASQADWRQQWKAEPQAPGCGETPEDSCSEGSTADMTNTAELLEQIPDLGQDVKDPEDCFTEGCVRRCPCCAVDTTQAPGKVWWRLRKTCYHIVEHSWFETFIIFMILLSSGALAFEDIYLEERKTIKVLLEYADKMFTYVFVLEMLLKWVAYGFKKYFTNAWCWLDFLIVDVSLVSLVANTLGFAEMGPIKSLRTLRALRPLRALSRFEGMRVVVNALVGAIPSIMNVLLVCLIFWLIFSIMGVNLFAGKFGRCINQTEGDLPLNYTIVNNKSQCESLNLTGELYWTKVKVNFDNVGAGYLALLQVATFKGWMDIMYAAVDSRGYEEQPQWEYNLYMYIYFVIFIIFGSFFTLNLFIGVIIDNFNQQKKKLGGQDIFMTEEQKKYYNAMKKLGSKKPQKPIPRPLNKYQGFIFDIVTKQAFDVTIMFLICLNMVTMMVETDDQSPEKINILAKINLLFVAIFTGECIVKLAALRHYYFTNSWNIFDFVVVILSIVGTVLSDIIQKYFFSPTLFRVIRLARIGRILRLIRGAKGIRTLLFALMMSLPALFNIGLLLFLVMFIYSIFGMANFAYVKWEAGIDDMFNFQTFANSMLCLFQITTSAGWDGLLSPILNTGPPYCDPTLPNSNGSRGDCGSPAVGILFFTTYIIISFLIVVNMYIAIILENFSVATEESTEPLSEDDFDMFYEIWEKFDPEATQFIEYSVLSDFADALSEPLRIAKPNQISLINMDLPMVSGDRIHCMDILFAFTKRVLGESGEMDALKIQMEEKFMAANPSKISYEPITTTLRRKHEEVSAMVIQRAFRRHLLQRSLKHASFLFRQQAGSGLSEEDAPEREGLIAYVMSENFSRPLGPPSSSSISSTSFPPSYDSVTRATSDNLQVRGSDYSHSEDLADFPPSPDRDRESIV
T11 sequence (Q15858 whole entry): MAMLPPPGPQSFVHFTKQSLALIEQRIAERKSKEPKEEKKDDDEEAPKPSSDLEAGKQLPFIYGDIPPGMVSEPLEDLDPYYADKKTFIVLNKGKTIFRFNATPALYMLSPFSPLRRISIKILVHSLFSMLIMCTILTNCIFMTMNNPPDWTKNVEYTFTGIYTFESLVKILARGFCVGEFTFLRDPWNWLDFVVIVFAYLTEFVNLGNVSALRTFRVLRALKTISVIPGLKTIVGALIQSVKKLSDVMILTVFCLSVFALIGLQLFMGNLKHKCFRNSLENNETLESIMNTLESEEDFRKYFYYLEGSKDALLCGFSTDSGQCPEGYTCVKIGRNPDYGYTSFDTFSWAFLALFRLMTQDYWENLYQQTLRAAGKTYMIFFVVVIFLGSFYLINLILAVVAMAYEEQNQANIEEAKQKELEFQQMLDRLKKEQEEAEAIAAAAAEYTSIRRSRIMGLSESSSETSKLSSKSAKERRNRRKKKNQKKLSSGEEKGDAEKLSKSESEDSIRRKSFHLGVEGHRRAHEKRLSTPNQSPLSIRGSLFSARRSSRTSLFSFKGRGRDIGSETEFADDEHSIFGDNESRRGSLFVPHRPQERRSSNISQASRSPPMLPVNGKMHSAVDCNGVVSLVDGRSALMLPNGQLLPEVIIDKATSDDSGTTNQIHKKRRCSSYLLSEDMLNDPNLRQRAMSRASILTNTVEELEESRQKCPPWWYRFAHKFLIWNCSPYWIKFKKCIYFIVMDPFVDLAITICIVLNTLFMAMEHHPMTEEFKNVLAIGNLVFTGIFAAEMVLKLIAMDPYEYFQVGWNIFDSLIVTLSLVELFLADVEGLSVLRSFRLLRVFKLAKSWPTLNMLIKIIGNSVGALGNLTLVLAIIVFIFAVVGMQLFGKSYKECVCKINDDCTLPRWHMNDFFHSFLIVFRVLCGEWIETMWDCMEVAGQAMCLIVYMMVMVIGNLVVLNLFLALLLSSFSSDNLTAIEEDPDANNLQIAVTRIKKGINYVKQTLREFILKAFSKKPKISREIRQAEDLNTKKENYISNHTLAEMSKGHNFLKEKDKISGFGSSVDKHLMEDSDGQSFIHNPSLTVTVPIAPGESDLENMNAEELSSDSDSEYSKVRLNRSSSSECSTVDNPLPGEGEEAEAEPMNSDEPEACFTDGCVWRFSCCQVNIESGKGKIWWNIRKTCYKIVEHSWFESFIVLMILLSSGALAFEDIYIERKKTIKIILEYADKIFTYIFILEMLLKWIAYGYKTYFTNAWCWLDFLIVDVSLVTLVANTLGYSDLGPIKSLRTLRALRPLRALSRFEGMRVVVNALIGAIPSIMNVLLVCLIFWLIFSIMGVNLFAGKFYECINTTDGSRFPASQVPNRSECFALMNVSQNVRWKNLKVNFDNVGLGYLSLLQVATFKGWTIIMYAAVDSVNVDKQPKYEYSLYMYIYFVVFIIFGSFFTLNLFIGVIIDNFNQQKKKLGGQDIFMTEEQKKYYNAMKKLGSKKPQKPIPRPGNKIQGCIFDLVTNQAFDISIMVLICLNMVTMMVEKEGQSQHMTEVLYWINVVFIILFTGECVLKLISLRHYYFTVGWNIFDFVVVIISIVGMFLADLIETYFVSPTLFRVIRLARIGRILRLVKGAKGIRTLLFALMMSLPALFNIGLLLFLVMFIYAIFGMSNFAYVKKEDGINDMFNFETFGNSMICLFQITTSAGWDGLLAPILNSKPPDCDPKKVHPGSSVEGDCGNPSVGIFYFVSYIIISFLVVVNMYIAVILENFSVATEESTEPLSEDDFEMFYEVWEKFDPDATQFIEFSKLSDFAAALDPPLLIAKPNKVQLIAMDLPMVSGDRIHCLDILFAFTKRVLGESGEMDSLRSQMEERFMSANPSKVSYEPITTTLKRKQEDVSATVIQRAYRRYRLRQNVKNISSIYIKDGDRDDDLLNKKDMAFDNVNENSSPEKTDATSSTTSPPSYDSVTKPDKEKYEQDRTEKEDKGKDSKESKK
T6 sequence (P63252 whole entry): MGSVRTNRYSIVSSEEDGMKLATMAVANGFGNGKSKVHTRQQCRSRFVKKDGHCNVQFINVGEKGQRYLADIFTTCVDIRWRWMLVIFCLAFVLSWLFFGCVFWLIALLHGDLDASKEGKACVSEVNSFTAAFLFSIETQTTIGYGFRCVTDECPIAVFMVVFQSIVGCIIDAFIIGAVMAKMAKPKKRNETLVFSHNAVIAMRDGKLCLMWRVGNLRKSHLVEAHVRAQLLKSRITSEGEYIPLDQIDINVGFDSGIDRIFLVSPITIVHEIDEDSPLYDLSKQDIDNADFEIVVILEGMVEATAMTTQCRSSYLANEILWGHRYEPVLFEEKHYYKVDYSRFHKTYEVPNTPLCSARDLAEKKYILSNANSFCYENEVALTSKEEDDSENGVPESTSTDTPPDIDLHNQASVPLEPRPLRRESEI
T8 sequence (Q09470 whole entry): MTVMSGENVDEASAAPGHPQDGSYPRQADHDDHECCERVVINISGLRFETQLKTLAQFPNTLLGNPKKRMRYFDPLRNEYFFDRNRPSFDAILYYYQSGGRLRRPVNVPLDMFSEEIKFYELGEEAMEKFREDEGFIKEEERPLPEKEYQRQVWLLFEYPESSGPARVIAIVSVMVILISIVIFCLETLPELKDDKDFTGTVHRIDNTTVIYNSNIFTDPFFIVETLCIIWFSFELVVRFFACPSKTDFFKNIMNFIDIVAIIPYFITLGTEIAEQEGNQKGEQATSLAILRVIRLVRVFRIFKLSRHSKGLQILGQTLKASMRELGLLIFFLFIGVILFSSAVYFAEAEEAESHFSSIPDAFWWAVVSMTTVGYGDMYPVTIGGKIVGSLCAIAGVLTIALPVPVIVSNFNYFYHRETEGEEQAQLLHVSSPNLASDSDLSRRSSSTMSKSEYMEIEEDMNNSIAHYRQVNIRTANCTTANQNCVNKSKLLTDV

## 34 (GGYSRCQLQGFNCVVRSYGLPTIPCCRGLTCRSYFPGSTYGRCQRY) [compound 34]
NR2A; peptide at 0.2 μM
  Activity of NR2A with peptide, expressed as a percentage of the reference compound: 112%
NR2A; peptide at 20 μM
  Activity of NR2A with peptide (percentage of the reference compound): 77%
α3β4; peptide at 0.2 μM
  Activity of a3b4 with peptide, expressed as a percentage of the reference compound: 103%
α3β4; peptide at 20 μM
  Activity of a3b4 with peptide (percentage of the reference compound): 97%
Kv2.1; peptide at 0.2 μM
  Activity of Kv2.1 with peptide, expressed as a percentage of the reference compound: 98%
Kv2.1; peptide at 20 μM
  Activity of Kv2.1 with peptide (percentage of the reference compound): 97%
Cav2.2; peptide at 0.2 μM
  Activity of Cav2.2 with peptide, expressed as a percentage of the reference compound: 130%
Cav2.2; peptide at 20 μM
  Activity of Cav2.2 with peptide (percentage of the reference compound): 94%
Cav2.1; peptide at 0.2 μM
  Activity of Cav2.1 with peptide, expressed as a percentage of the reference compound: 86%
Cav2.1; peptide at 20 μM
  Activity of Cav2.1 with peptide (percentage of the reference compound): 111%
Kir2.1; peptide at 0.2 μM
  Activity of Kir2.1 with peptide, expressed as a percentage of the reference compound: 97%
Kir2.1; peptide at 20 μM
  Activity of Kir2.1 with peptide (percentage of the reference compound): 50%
hERG; peptide at 0.2 μM
  Activity of hERG with peptide, expressed as a percentage of the reference compound: 84%
hERG; peptide at 20 μM
  Activity of hERG with peptide (percentage of the reference compound): 66%
Nav1.5; [1]
  Activity of Nav1.5 with peptide, expressed as a percentage of the reference compound: 111%
  Activity of Nav1.5 with peptide (percentage of the reference compound): 101%
Nav1.5; [2]
  Activity of Nav1.5 with peptide, expressed as a percentage of the reference compound: 113%
  Activity of Nav1.5 with peptide (percentage of the reference compound): 101%
5HT3a
  Activity of 5HT3a with peptide (percentage of the reference compound): 97%
  Activity of 5HT3a with peptide, expressed as a percentage of the reference compound: 114%
GABA; peptide at 0.2 μM
  Activity of GABA with peptide, expressed as a percentage of the reference compound: 107%
GABA; peptide at 20 μM
  Activity of GABA with peptide (percentage of the reference compound): 117%
Kv1.1; peptide at 0.2 μM
  Activity of Kv1.1 with peptide, expressed as a percentage of the reference compound: 109%
Kv1.1; peptide at 20 μM
  Activity of Kv1.1 with peptide (percentage of the reference compound): 111%
Kv1.2; peptide at 0.2 μM
  Activity of Kv1.2 with peptide, expressed as a percentage of the reference compound: 96%
Kv1.2; peptide at 20 μM
  Activity of Kv1.2 with peptide (percentage of the reference compound): 51%
Kv1.3; peptide at 0.2 μM
  Activity of Kv1.3 with peptide, expressed as a percentage of the reference compound: 108%
Kv1.3; peptide at 20 μM
  Activity of Kv1.3 with peptide (percentage of the reference compound): 100%
Nav1.7; [3]
  Activity of Nav1.7 with peptide, expressed as a percentage of the reference compound: 102%
  Activity of Nav1.7 with peptide (percentage of the reference compound): 86%
Nav1.7; [4]
  Activity of Nav1.7 with peptide, expressed as a percentage of the reference compound: 104%
  Activity of Nav1.7 with peptide (percentage of the reference compound): 80%
α4β2; peptide at 0.2 μM
  Activity of a4b2 with peptide, expressed as a percentage of the reference compound: 81%
α4β2; peptide at 20 μM
  Activity of a4b2 with peptide (percentage of the reference compound): 51%
TRPV1; peptide at 0.2 μM
  Activity of TRPV1 with peptide, expressed as a percentage of the reference compound: 110%
TRPV1; peptide at 20 μM
  Activity of TRPV1 with peptide (percentage of the reference compound): 71%
NR2B; peptide at 0.2 μM
  Activity of NR2B with peptide, expressed as a percentage of the reference compound: 127%
NR2B; peptide at 20 μM
  Activity of NR2B with peptide (percentage of the reference compound): 66%
TRPA1; peptide at 0.2 μM
  Activity of TRPA1 with peptide, expressed as a percentage of the reference compound: 91%
TRPA1; peptide at 20 μM
  Activity of TRPA1 with peptide (percentage of the reference compound): 97%
